Reference: IntAct's records for PubMed 19172752

B1: General transcription factor IIH subunit 4 (Homo sapiens), Q92759 (parent)
chain: MESTPSRGLNRVHLQCRNLQEFLGGLSPGVLDRLYGHPATCLAVFRELPSLAKNWVMRMLFLEQPLPQAAVALWVKKEFSKAQEESTGLLSGLRIWHTQLLPGGLQGLILNPIFRQNLRIALLGGGKAWSDDTSQLGPDKHARDVPSLDKYAEERWEVVLHFMVGSPSAAVSQDLAQLLSQAGLMKSTEPGEPPCITSAGFQFLLLDTPAQLWYFMLQYLQTAQSRGMDLVEILSFLFQLSFSTLGKDYSVEGMSDSLLNFLQHLREFGLVFQRKRKSRRYYPTRLAINLSSGVSGAGGTVHQPGFIVVETNYRLYAYTESELQIALIALFSEMLYRFPNMVVAQVTRESVQQAIASGITAQQIIHFLRTRAHPVMLKQTPVLPPTITDQIRLWELERDRLRFTEGVLYNQFLSQVDFELLLAHARELGVLVFENSAKRLMVVTPAGHSDVKRFWKRQKHSS
partner: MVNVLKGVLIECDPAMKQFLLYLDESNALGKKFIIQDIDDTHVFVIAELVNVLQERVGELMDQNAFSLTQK

Variants of: B1
Conditions: with tf2h5_human GTF2H5, Q6ZYL4

Row | effect of a mutation on the interaction | Variant
1 | decreasing interaction | K438A;R439A
